According to patent US20230085393A1:

Legend:
[1] = molecular target: ZIKV Dakar strain virus (African lineage), E2 antigen on virions (Zika virus)
[2] = molecular target: ZIKV Brazil strain virus (Asian lineage), E2 antigen on virions (Zika virus)

B1: ZIKV-120765-491 (antibody, V domains shown)
VH: EVQLVESGGGLVQPGGSLRLSCAASGFTFIRYAMSWVRQAPGKGLEWVSDISGSGGSTFYADSVKGRFTISRDNSKNTLYLQMNSLRAEDTAVYYCARDDEGYTTNWYDAYDIWGQGTMVTVSS
VL: DIQMTQSPSSLSASVGDRVTITCRASQSIGSYLNWYQQRPGKAPKLLIYTASSLQSGVPSRFSGSGSGTDFILTISSLQPEDFATYYCQQNYNIPQVTFGPGTKVDIK
In the case of B1, the IC50, RTCA cellular impedance neutralisation assay on Vero cells [1] is reported as < 0.1 µg/mL and the IC50, RTCA cellular impedance neutralisation assay on Vero cells [2] is reported as < 0.1 µg/mL.

B2: ZIKV-120764-350 (antibody, V domains shown)
VH: DVQLVESGGGLIQPGGSLRLSCAASGFTARTNYMTWVRQAPGKGLEWVSVIYSGGSTIYADSVKGRFTISRDNAKNSLYLQMNSLRAEDTAVYYCARDRGYLDHWGQGTLVTVSS
VL: EIVLTQSPATLSLSPGERATLSCRASQSVTNYFAWYQQRPGQAPRLLIYDVSNRATGIPARFSGSGSGTDFTLTISSLEPEDFAVYYCQQRSNWPYTFGQGTKVEIK
For B2, the IC50, RTCA cellular impedance neutralisation assay on Vero cells [1] was < 0.1 µg/mL and the IC50, RTCA cellular impedance neutralisation assay on Vero cells [2] was < 0.1 µg/mL.
